Measured values reported in US20220204640A1 (Genentech, published 2022).

Tests used:
[1] = target: T1, TAT211 polypeptide on the surface of cells (human, UniProt O95436 1-690); assay: Scatchard analysis on cells, IgG
T1 construct: Expressed endogenously (OVCAR-3, OVCAR4, Igrov1, P828, P701sc20) or recombinantly (293/TAT211) on the cell surface
T1 sequence: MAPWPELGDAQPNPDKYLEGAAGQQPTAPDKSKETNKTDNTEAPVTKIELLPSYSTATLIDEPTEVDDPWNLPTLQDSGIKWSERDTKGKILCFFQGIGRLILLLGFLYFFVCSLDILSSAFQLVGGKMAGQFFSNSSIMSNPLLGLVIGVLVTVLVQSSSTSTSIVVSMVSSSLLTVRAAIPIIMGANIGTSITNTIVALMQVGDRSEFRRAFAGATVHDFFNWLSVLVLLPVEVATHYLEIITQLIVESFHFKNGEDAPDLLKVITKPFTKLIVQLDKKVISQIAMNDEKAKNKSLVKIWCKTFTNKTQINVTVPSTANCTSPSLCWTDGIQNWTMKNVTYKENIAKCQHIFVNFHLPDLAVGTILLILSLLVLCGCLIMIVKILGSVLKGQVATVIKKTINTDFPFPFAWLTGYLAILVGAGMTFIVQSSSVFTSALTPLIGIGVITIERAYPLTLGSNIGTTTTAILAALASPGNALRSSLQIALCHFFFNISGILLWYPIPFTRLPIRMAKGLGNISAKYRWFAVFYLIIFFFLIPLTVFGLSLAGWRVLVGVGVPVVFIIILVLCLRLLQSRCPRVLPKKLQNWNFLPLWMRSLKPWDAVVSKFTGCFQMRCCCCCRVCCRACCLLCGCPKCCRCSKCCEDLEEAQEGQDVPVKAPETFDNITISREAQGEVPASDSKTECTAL

[2] = target: T2, CHO derived TAT211 extracellular domain (glycosylated, immunoadhesin / Fc fusion) (human, UniProt O95436 234-362, glycosylated (CHO)); assay: surface plasmon resonance for the Fab, compared with mu10H1
T2 construct: not shown: Fc part of the immunoadhesin
T2 sequence: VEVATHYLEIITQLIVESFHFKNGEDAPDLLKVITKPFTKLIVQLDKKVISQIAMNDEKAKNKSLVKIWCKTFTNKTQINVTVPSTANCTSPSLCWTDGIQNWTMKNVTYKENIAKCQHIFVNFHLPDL

[3] = target: T2, CHO derived TAT211 extracellular domain …; assay: surface plasmon resonance (Biacore), TAT211 extracellular domain immobilized
Procedure: TAT211 extracellular domain (glycosylated) was immobilized (approximately 100-400 RU, in 10 mM Sodium Acetate pH 4.8 on a CM5 sensor chip) and the 10H1 antibody variant served as the analyte (injected at a flow rate of 30 μL/min, using a 2-fold serial dilution of 4 to 1000 nM in PBST). Each sample was analyzed with 4-minute association and 10-minute disassociation. After each injection the chip was regenerated using 10 mM Glycine pH 1.7.

[4] = target: T1, TAT211 polypeptide on the surface of …; assay: Scatchard analysis on P828 cells expressing TAT211; P828 cells
[5] = target: T1, TAT211 polypeptide on the surface of …; assay: Scatchard analysis on Igrov1 cells expressing TAT211; Igrov1 cells
[6] = target: T1, TAT211 polypeptide on the surface of …; assay: Scatchard analysis on OVCAR4 cells expressing TAT211; OVCAR4 cells
[7] = target: T1, TAT211 polypeptide on the surface of …; assay: Scatchard analysis on P701sc20 cells expressing TAT211; P701sc20 cells

B1: humanized anti-TAT211 antibody 10H1.11.4B (IgG) (antibody, V domains shown)
VH: EVQLVESGGGLVQPGGSLRLSCAASGFSFSDFAMSWVRQAPGKGLEWVATIGRVAFHTYYPDSMKGRFTISRDNSKNTLYLQMNSLRAEDTAVYYCARHRGFDVGHFDFWGQGTLVTVSS
VL: DIQMTQSPSSLSASVGDRVTITCRSSETLVHSSGNTYLEWYQQKPGKAPKLLIYRVSNRFSGVPSRFSGSGSGTDFTLTISSLQPEDFATYYCFQGSFNPLTFGQGTKVEIKR
B1: binds [1].

B2: 10H1-graft as a Fab (Fab, V domains shown)
VH: EVQLVESGGGLVQPGGSLRLSCAASGFSFSDFAMSWVRQAPGKGLEWVATIGRVASHTYYPDSMKGRFTISRDNSKNTLYLQMNSLRAEDTAVYYCVRHRGFDVGHFDFWGQGTLVTVSS
VL: DIQMTQSPSSLSASVGDRVTITCRSSETLVHSNGNTYLEWYQQKPGKAPKLLIYRVSNRFSGVPSRFSGSGSGTDFTLTISSLQPEDFATYYCFQGSHNPLTFGQGTKVEIKR
notes: Fab expressed in E. coli from the phage display vector; also called 10H1 anti-TAT211 grafted humanized antibody
B2 was tested, and the “fold loss of affinity relative to the mu10H1 hybridoma antibody” value [2] was roughly 2 fold and the Kd [3] was 74 nM.

B3: murine monoclonal antibody 10H1 (antibody, V domains shown)
VH: EVMLVESGGGLVRPGGSLKVSCAASGFSFSDFAMSWVRRTPDKRLEWVATIGRVASHTYYPDSMKGRFTISRDNAKNTLYLQMNSLRSDDTAIYYCVRHRGFDVGHFDFWGQGTLLTVSA
VL: DILMTQTPLSLPVSLGDQASISCRSSETLVHSNGNTYLEWYLQKLGQPPKLLIYRVSNRFSGVPDRFSGSGSGTDFTLKISRLEAEDLGVYYCFQGSHNPLTFGAGTKVEIKR
notes: Murine hybridoma IgG; also called mu10H1; murine 10H1
Work on B3 yielded a Kd [4] of 36 nM, a Kd [5] of 61 nM and a Kd [6] of 37 nM. It also gave a Kd [7] of 59 nM.
